Measurements from PMC5891081.

T1: RAD52 wild type (Homo sapiens, UniProt P43351 1-418)
T1 sequence: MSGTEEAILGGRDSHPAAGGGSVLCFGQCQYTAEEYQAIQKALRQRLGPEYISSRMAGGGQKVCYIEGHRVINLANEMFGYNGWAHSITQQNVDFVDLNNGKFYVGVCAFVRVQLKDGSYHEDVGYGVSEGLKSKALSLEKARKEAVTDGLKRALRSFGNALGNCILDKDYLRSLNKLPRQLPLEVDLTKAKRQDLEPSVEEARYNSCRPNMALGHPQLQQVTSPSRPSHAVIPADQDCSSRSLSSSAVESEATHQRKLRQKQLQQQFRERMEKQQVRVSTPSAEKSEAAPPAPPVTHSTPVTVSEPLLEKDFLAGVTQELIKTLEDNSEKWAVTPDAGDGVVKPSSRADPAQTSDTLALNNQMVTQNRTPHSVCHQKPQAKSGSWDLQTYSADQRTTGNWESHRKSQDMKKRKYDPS


Experiments:
[1] = biological target: GAL4-DBD-fused RAD52 (10xQ) (human) (UniProt P43351); test: two-hybrid; yeast; GAL4 DBD-fused RAD52 with NLS-GAL4 AD fusions; lacZ reporter, liquid beta-galactosidase assay, activity relative to RAD52 (Wt)
RAD52 wild type = biological target: T1, RAD52 wild type; test: EMSA; 10 uM nucleotides DNA; 16 uL reactions, Cy5-50-mer 10 uM in nucleotides; 5X buffer contains 0.1 M HEPES-NaOH pH 7.5 (20 mM final if 1X); remaining components, salt and temperature cut off in the material; details: protein: recombinant; tags: C-terminal His6 construct (pET21a) or pET15b construct; label: 5'-Cy5; single strand, 50 nt

Row | fold change of beta-galactosidase activity against RAD52 (Wt) [1] [fold] | Molecule | binding result (RAD52 wild type)
1 | 1.7 | GAL4-DBD-fused RAD52 (10xQ) (from UniProt P43351 1-418) (natural protein) | –
2 | – | TCGCCATCAACTAACGATTCTGTCAAAAACTGACGCGTTGGATGAGGAGA (ssDNA) [FX174-50-1 (oligo 1)] | binds
